Biological target: GST::BubR1 [1–337] (Drosophila)
Assay: pull-down

decrease of in vitro binding efficiency against wild-type Fzy: 50%
B1: GFP::Fzy-DYY* (natural protein)
chain: MSQFNFVSDLQNALIMDGETRGPAPRWKKKLEASLNGSVNTTRSVLSVSYNTSFSGVQAPTKTPGKSSEGKTKKSNTTPSKTPGGGDRFIPNRAATNFELAHFLVNKDSGDKSDEENDKATSSNSNESNVQASAHKGDRQKLISEVAQVGDSKGGRILCYQNKAPAAPETHNNPLKVVYSIKTPISTKSGSRYIPTTSERILDAPDFINAAALNLMDWSADNIVAVALGSCVYLWNAQTGNIEQLTEFEEGDYAGSLSWIQEGQILAIGNSTGAVELWDCSKVKRLRVMDGHSARVGSLAWNSFLVSSGSRDGTIVHHDVRAREHKLSTLSGHTQEVCGLKWSTDFKYLASGGNDNLVNVWSAASGGVGTATDPLHKFNDHQAAVRALAWCPWQPSTLASGGGTADRCIKFWNVNNGTLMKSVDSKSQVCSLLFSRHYKELISAHGFANNQLTIWKYPTMVKQADLTGHTSRVLQMAMSPDGSTVISAGADETLRLWNCFAPDPLASKKAVSTSKGKQSVFRQSIR
